Results: patent publication US20140087995A1 (published 2014)
Numbered stars: 1 amine (or outer) side, 2 acyl side, 3 side chain; on linkers, the order of the positions; unused ones are H or OH. Bridge positions count the residues as written; N and C are the ends. Side chains are listed from the residue outwards. Ends that are not written are not given here. * marks the point of attachment. C20 diacid = O=C(O)CCCCCCCCCCCCCCCCCCC(=O)*; γGlu = O=C(O)[C@H](CCC(=O)[*:2])N[*:1]; AEEA = NCCOCCOCC(=O)O

Experiments:
[1] = biological target: T1, human amylin receptor (human calcitonin receptor co-expressed with RAMP-3; amylin 3(a) receptor) (human, UniProt P30988 25-474; O60896 24-148, limits assumed); experiment: ratio of hCTR binding IC50 to hAmylin-R binding IC50 (reference: human calcitonin receptor)
T1 construct: whole, on cells; Used as cell membranes prepared from Amylin 3(a)/CRE-luc BHK cells (Assay V), not as intact cells; also called hAmylin-R; hAmylinR
T1 sequence (looked up) 1: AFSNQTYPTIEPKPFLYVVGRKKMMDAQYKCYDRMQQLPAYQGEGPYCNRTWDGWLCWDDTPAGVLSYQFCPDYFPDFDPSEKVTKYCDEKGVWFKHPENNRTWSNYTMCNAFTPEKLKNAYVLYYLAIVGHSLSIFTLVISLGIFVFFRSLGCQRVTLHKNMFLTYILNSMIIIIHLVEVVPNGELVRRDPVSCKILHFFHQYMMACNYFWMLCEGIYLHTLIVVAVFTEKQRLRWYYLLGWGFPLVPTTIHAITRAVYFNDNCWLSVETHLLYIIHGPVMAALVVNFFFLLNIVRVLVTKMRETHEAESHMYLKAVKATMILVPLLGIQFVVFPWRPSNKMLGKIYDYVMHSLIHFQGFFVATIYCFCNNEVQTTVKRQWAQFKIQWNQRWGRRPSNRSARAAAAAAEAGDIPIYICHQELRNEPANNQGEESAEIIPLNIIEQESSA
T1 sequence (looked up) 2: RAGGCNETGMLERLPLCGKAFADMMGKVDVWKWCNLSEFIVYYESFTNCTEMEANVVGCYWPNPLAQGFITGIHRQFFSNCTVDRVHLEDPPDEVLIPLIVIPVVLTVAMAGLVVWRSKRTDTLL
Protocol: The resulting pellet was resuspended, homogenized and centrifuged (20.000 rpm, 15 min) in a buffer containing 20 mM Na-HEPES and 0.1 mM EDTA (pH 7.4, buffer 2). The resulting pellet was resuspended in buffer 2 and protein concentration was measured (BCA protein Assay, Pierce). The homogenate was kept cold during the whole procedure. The membranes were kept at −80° C. until use. The assay was performed in a 384 well Optiplate (PerkinElmer) in a total volume of 40 ul. Membranes were mixed with SPA beads. Final concentration of membranes 35 ng/μL final and SPA beads was 0.05 mg/well. Test-compounds were dissolved in DMSO and further diluted in assay buffer (50 mM Hepes, pH 7.4, 1 mM CaCl2, 5 mM MgCl₂, 0.1% OA and 0.02% Tween20). […] The final mixture was incubated with shaking at 400 rpm for 120 min at 25° C. prior to centrifugation (1500 rpm, 10 min). Samples were analyzed on TopCounter™ (Packard). The IC₅₀ was calculated using (one site binding competition analysis) GraphPad Prism5 as a measure of receptor affinity.
Membranes were prepared in the following way; the cells were rinsed with PBS and incubated with Versene for approximately 5 min before harvesting. The cells were flushed with PBS and the cell-suspension was centrifuged for 5 min at 1000 rpm. Cells were homogenized (Ultrathurrax) in a buffer containing 20 mM Na-HEPES and 10 mM EDTA (pH 7.4) and centrifuged at 20.000 rpm for 15 min. The resulting pellet was resuspended, homogenized and centrifuged (20.000 rpm, 15 min) in a buffer containing 20 mM Na-HEPES and 0.1 mM EDTA (pH 7.4, buffer 2). The resulting pellet was resuspended in buffer 2 and protein concentration was measured (BCA protein Assay, Pierce). The homogenate was kept cold during the whole procedure. The membranes were kept at −80° C. until use. Assay was performed in a 384 well Optiplate (PerkinElmer) in a total volume of 40 ul. Membranes were mixed with SPA beads.

[2] = biological target: T2, human calcitonin receptor (human, UniProt P30988 25-474); experiment: SPA competition against 125I-calcitonin, membranes with human calcitonin receptor (Assay VII)
T2 construct: whole, on cells; Used as cell membranes prepared from the transfected BHK cells (Assay VII), not as intact cells; also called hCTR; hCT
T2 sequence (looked up): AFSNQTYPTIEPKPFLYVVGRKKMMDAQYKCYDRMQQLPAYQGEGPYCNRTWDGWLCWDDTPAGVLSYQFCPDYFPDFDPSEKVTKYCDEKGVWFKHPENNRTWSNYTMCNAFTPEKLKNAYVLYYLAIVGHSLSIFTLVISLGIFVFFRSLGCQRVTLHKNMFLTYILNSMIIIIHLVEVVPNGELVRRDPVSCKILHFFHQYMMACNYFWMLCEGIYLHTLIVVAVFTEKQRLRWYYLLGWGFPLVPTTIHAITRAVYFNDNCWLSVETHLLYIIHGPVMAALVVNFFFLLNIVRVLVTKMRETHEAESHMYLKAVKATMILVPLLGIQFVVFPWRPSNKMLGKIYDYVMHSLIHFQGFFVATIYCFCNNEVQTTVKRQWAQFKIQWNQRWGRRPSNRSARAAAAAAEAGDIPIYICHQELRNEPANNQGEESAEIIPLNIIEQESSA
Outline: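 BHK hCTR membranes 35 ng/μL + SPA beads 0.05 mg/well; buffer 50 mM Hepes pH 7.4, 1 mM CaCl2, 5 mM MgCl₂, 0.1% OA, 0.02% Tween20. 120 min, 25° C., shaking. Scintillation count; IC50 by one-site binding competition.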

Binder	Ratio hCT/hAmylin binding [1]	IC50 [2] [µM]
K([AEEA-γGlu-C20 diacid])CNTATCATQRLANFLRHSSPNFGAIPSSTPVGSHTY-NH2 (disulfide 2-7; N-terminus assumed; SMILES CC[C@H](C)[C@H](NC(=O)[C@H](C)NC(=O)CNC(=O)[C@H](Cc1ccccc1)NC(=O)[C@H](CC(N)=O)NC(=O)[C@@H]1CCCN1C(=O)[C@H](CO)NC(=O)[C@H](CO)NC(=O)[C@H](Cc1c[nH]cn1)NC(=O)[C@H](CCCNC(=N)N)NC(=O)[C@H](CC(C)C)NC(=O)[C@H](Cc1ccccc1)NC(=O)[C@H](CC(N)=O)NC(=O)[C@H](C)NC(=O)[C@H](CC(C)C)NC(=O)[C@H](CCCNC(=N)N)NC(=O)[C@H](CCC(N)=O)NC(=O)[C@@H](NC(=O)[C@H](C)NC(=O)[C@@H]1CSSC[C@H](NC(=O)[C@@H](N)CCCCNC(=O)COCCOCCNC(=O)CC[C@H](NC(=O)CCCCCCCCCCCCCCCCCCC(=O)O)C(=O)O)C(=O)N[C@@H](CC(N)=O)C(=O)N[C@@H]([C@@H](C)O)C(=O)N[C@@H](C)C(=O)N[C@@H]([C@@H](C)O)C(=O)N1)[C@@H](C)O)C(=O)N1CCC[C@H]1C(=O)N[C@@H](CO)C(=O)N[C@@H](CO)C(=O)N[C@H](C(=O)N1CCC[C@H]1C(=O)N[C@H](C(=O)NCC(=O)N[C@@H](CO)C(=O)N[C@@H](Cc1c[nH]cn1)C(=O)N[C@H](C(=O)N[C@@H](Cc1ccc(O)cc1)C(N)=O)[C@@H](C)O)C(C)C)[C@@H](C)O, also called compound 57)	133	0.0153
K([AEEA-γGlu-C20 diacid])CNTATCATQRLANFLRHSSPNFGAIPSSTNVGPHTY-NH2 (disulfide 2-7; N-terminus assumed; SMILES CC[C@H](C)[C@H](NC(=O)[C@H](C)NC(=O)CNC(=O)[C@H](Cc1ccccc1)NC(=O)[C@H](CC(N)=O)NC(=O)[C@@H]1CCCN1C(=O)[C@H](CO)NC(=O)[C@H](CO)NC(=O)[C@H](Cc1c[nH]cn1)NC(=O)[C@H](CCCNC(=N)N)NC(=O)[C@H](CC(C)C)NC(=O)[C@H](Cc1ccccc1)NC(=O)[C@H](CC(N)=O)NC(=O)[C@H](C)NC(=O)[C@H](CC(C)C)NC(=O)[C@H](CCCNC(=N)N)NC(=O)[C@H](CCC(N)=O)NC(=O)[C@@H](NC(=O)[C@H](C)NC(=O)[C@@H]1CSSC[C@H](NC(=O)[C@@H](N)CCCCNC(=O)COCCOCCNC(=O)CC[C@H](NC(=O)CCCCCCCCCCCCCCCCCCC(=O)O)C(=O)O)C(=O)N[C@@H](CC(N)=O)C(=O)N[C@@H]([C@@H](C)O)C(=O)N[C@@H](C)C(=O)N[C@@H]([C@@H](C)O)C(=O)N1)[C@@H](C)O)C(=O)N1CCC[C@H]1C(=O)N[C@@H](CO)C(=O)N[C@@H](CO)C(=O)N[C@H](C(=O)N[C@@H](CC(N)=O)C(=O)N[C@H](C(=O)NCC(=O)N1CCC[C@H]1C(=O)N[C@@H](Cc1c[nH]cn1)C(=O)N[C@H](C(=O)N[C@@H](Cc1ccc(O)cc1)C(N)=O)[C@@H](C)O)C(C)C)[C@@H](C)O, also called compound 58)	109	0.00963
